Laboratory results reported in US20260297170 (published 2026).

B1: 62K98H (antibody, V domains shown)
VH: QITLKESGPTLVKPTQTLTLTCTFSGFSLSTSGVGVGWIRQPPGEALEWLAVIHWNEANYYSPYLRSRLTITKDTSKNQMVLTVTNMDPVDTATYYCARGANSDSSGRLDAFDIWGQGTMVTVSS
VL: DVVMTQSPLSLPVTLGQPASISCRSSQSLIYSDGNTRLYWFHQRPGQSPRRLIYGVSNRDSGVPDRFSGSGSGTDFTLKISRVEAEDVGVYYCMQSTHWPHTFGQGTKLEIK
B2: 85L117H (antibody, V domains shown)
VH: QVQLVQSGAELKRPGSSVKVSCRASGDTFKNYAITWVRQAPGQGLEWVGGIDPLVGVPNYTHRFQGRVTITADEPTSTTYMEFRDLTSDDTAVYYCARGVRDQHWSYFDSWGQGTLVTVSS
VL: QSVLTQPPSASGTPGQTVNISCSGATSNIGGGSVNWYQQLPGAAPRLLIHSDNERASGVPDRFSGSKSGTSASLAISGLQSEDEADYFCASWDDSLDGHVVFGGGTKVTVL
B3: Murine 3F12E7 (antibody, V domains shown)
VH: GELQESGPELVKPGASVKISCKASGYSFTGYYMNWVKHSPEKSLEWIGEINPSTGGTSYNQKFKAKATLTVDKSSTTAYMQLKGLTSEDSAVYYCASGGYYEGFDYWGQGTTVTVSS
VL: DIELTQSPASLSASVGETVTGNIYSYLAWYQQKQGKSPQLLVYDAKTLADGVPSRFTGSGSGTQFSLKINSLQPEDFGSYYCQHFWNTPRTFGGGTKLEIK

What follows are binders tested against rFGF2 (human, UniProt P09038) (assay: SPR).
Chain of rFGF2 (P09038 143-288): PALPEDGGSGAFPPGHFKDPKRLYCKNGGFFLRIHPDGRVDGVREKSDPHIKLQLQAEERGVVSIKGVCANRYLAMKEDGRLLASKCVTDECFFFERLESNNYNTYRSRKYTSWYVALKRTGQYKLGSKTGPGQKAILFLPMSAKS

Binder | Kd [nM]
B1 | 9.1
B2 | 17
B3 | 0.413
